This is an account of results in the RNAGym collection of RNA variant scans (doi:10.7554/elife.80360).

Sequences and labels used below:
B1: Hairpin Ribozyme (parent)
chain: GUCCUCUUUCACGUGCGCGUGAAAGAGAGAAGUGAACCAGAGAAACACACGUUGUGGUAUAUUACCUGGUA

In the data set the parent is B1. As to the kind of experiment: self-cleavage, relative activity (ratio to wild type); higher = more cleavage; co-transcriptional.
Consider GUCCUCUUUCACGGGCGCGUGAAAGAGAGAAGUGAACCAGAGAAACACACGUUGUGGUGUAUUACCUGGUA [U14G A59G], for which the self-cleavage turned out to be 0.121.

Take GUCCUCUUUCACGUGCGCGUGAAAGAGAGAAGUGAACCAGAGAAUCACACGUUGUGGUAUAUUACCUUGUA [A45U G68U]: the self-cleavage stood at 0.258.

With GUCCUCUUUCACGUGCGCGUGAAAGAGAGAAGUGAAGCAGAGAAACACACGAUGUGGUAUAUUACCUGGUA [C37G U52A], the self-cleavage worked out at 0.358.

As for GUCCUCUUUCACGUGCGCGGGAAAGAGAGAAGUGAACCAGAGAAAUACACGUUGUGGUAUAUUACCUGGUA [U20G C46U], the self-cleavage amounted to 0.0821.

On to GUCCUCUUUCACGUGCGCGUGAAAGAGAGAAGUGAACCAGAGAAACACACGUUGUGGUAGAUUAUCUGGUA [U60G C65U], for which the self-cleavage worked out at 0.183.

For GUCCUCUUUCACGUGCGCGUGAUAGAGAGAAUUGAACCAGAGAAACACACGUUGUGGUAUAUUACCUGGUA [A23U G32U], the self-cleavage was found to be 0.19.

In the case of GUCCUCUUUCACGUGCGCGUCAUAGAGAGAAGUGAACCAGAGAAACACACGUUGUGGUAUAUUACCUGGUA [G21C A23U], the self-cleavage came to 0.5.

Take GUACUCUUUCACGUGCGCGUGAAAGAGAGAAGUGAACCAGAGAAACACACGUUGUGGUAUAUUACCUGGAA [C3A U70A]: the self-cleavage came to 0.377.

Regarding GUCCUCUUUCUCGUGCGCGUGAAAGAGAGAAGUGAACCAGAGAAACACACGUUGUGGUAUAUUGCCUGGUA [A11U A64G], the self-cleavage was 0.588.

Consider GUCCUCUUUCACGUGCGCGUGAAAGAGAGAAGUCAACCAGAGAAACACACGUUGUGGUAUUUUACCUGGUA [G34C A61U], for which the self-cleavage amounted to 1.24.

GUCCUGUUUCACGUGGGCGUGAAAGAGAGAAGUGAACCAGAGAAACACACGUUGUGGUAUAUUACCUGGUA [C6G C16G]: the self-cleavage turned out to be 0.423.

As to GUCCUCUUUCACGUGCGCGUGAAAGAGAGAAGUGAACCUGAGAAACACACGUUGUGGUAUAUUACCUGGGA [A39U U70G], the self-cleavage was 0.333.

Take GUCCUCUUUCACGUGCGCGUGAAAGAGAGAAGUGAACCACAGGAACACACGUUGUGGUAUAUUACCUGGUA [G40C A43G]: the self-cleavage is 0.138.

For GUCCUCUUUCACGUGCGCGUGAAAGAGAGAAGCGAACCAGCGAAACACACGUUGUGGUAUAUUACCUGGUA [U33C A41C], the self-cleavage was determined as 0.114.

For GACCUCUUUCACGUGCGCGUGAAAGAGAGAAGUGAACCAGAGAAACACACGUUGUGGUAUAAUACCUGGUA [U2A U62A], the self-cleavage worked out at 0.194.

GUCCUCUUUCAUGUGCGCGUGAAAGAGAGAAGUGAACCAGAGAAACACACGUUGUGGUAUAUUACCUGAUA [C12U G69A]: the self-cleavage turned out to be 0.406.

Take GUCCUCUUUCACGUGCGCGUGAAAGAGAGAAGUGAACCAGAGAAACACACGUUGUGGAAUAUUACCAGGUA [U58A U67A]: the self-cleavage was found to be 0.273.

For the variant GUCCUCUUUCACGUGCGCGUGAAAGAGAGAAGUGAACCAGAGAAACAAACGUUGUGGUAUAUUACCUUGUA [C48A G68U], the self-cleavage stood at 0.16.

As to GUCCUCUUUCACGUGCGAGUGAAAGAGAGAAGUGAACCAGAAAAACACACGUUGUGGUAUAUUACCUGGUA [C18A G42A], the self-cleavage is 0.203.

For the variant GUCCUCUUUCACGUGCGCGUGAAAGAGAGAAGUGGACCAGAGAAACACACGUUGUGGUAUAUUACCUGGCA [A35G U70C], the self-cleavage turned out to be 0.796.

For GUCCUCUUUCACGUGCGCGUGAGAGAGAGAAGUGAACCAGAGAAACACACGUUGGGGUAUAUUACCUGGUA [A23G U55G], the self-cleavage worked out at 0.192.

Turning to GUCCUCUUUCUCGUGCGCGUGAAAGAGAGAAGUGAACGAGAGAAACACACGUUGUGGUAUAUUACCUGGUA [A11U C38G], the self-cleavage worked out at 0.128.

With GUCCUGUUUCACGUGCGCGUGAAAGAGAGAAGUGAACCAGAGAAACACACGUUAUGGUAUAUUACCUGGUA [C6G G54A], the self-cleavage stood at 0.28.

On to GUCCUCUUUCACGUGCGCGAGAAAAAGAGAAGUGAACCAGAGAAACACACGUUGUGGUAUAUUACCUGGUA [U20A G25A], for which the self-cleavage was 0.453.

For the variant GUCCUCUUUCACGUGCGCGUGAAAGAGACAAGUGAAACAGAGAAACACACGUUGUGGUAUAUUACCUGGUA [G29C C37A], the self-cleavage is 0.14.

In the case of GUCCUCUUUCACGUGCGCGUGAAAGAGAGAAGUGAACCAGAGAAACACGCGUUCUGGUAUAUUACCUGGUA [A49G G54C], the self-cleavage is 0.277.

As for GUCCUCUUUCACGUGCGCGUGAAAGAGAGGAGUGACCCAGAGAAACACACGUUGUGGUAUAUUACCUGGUA [A30G A36C], the self-cleavage was determined as 0.

With GUCCUCUUUCACGUGCGCGUGAAAGAGAGAAGUGAACCAGAGAAACACACUUUGUGGUAUCUUACCUGGUA [G51U A61C], the self-cleavage stood at 0.109.

Consider GUCCUCUUUCACGUGCGCGUGAAAGAGAUAAGUGAACCAGAGAAACACACGUUGUGGUAUAUUACCUGGGA [G29U U70G], for which the self-cleavage amounted to 0.315.

On to GUCCUCUUUCACGUGCGCGUGAAAGAGAGAAGUGAACCAGAGAAACAUACUUUGUGGUAUAUUACCUGGUA [C48U G51U], for which the self-cleavage was determined as 0.165.

Turning to GUCCUCUUUCACGUGCGCGUGAAAGAGAGAAAUGAACCAGAGAAACACACGUUGUGGUCUAUUACCUGGUA [G32A A59C], the self-cleavage turned out to be 0.133.

As to GUCCUCUUGCACGUGCGCGUGAAAGAGAGAAGUGAACCAGAGAAACACACGUUGUCGUAUAUUACCUGGUA [U9G G56C], the self-cleavage worked out at 0.0826.

As for GGCCUCUUUCACGUGCGCGUGAAAGAGAGAAGUGAACCAGGGAAACACACGUUGUGGUAUAUUACCUGGUA [U2G A41G], the self-cleavage was determined as 0.38.

GUCCUCUUUCACGUGCGCGUGAAAGAGAGAAGUGAACCAGAGAAACACACGUUGUGGUAUAUUUCCUGCUA [A64U G69C]: the self-cleavage came to 0.259.

On to GUCGUCUUUCACGUUCGCGUGAAAGAGAGAAGUGAACCAGAGAAACACACGUUGUGGUAUAUUACCUGGUA [C4G G15U], for which the self-cleavage was found to be 0.185.

For GACCUCUUUCACGUGCGCGUGAAAGAGAGGAGUGAACCAGAGAAACACACGUUGUGGUAUAUUACCUGGUA [U2A A30G], the self-cleavage was 0.442.

On to GUCCUCUUUCACGGGCGCGUGAAAGAGAGAACUGAACCAGAGAAACACACGUUGUGGUAUAUUACCUGGUA [U14G G32C], for which the self-cleavage came out at 0.0712.

Turning to GUCCUCUUUCACGUGCGCGUGUAAGAGAGAAGUGAACCAGAGAAACACACGUUGUGGUACAUUACCUGGUA [A22U U60C], the self-cleavage was determined as 0.719.
